Measured values: US20090286727A1 (Ablynx, published 2009)

B1: VH4 16.1 (VHH)
VHH: QVQLQESGPGLVKPSQTLSLTCTVSGGSITTYRYYWSWIRQPPGKGLEWMGAIAYSGSTYYSPSLKSRTSISRDTTKNQFTLQLSSVTPEDTAVYYCARGRLGSWYYELNEYDYWGQGTQVTVSS
notes: The two are tied only by the clone number; Llama VH4-class Nanobody, purified by IMAC as a His6-tagged protein; also called anti-IL6 VH4 Nanobody 16.1; VH4 cl16; not shown: His6 tag from vector pAX51
B2: VH4 20.1 (VHH)
VHH: QVQLQESGPGLVKPSQTLSLTCTVSGGSITTYNYAWSWIRQPPGKGLEWMGVIAYDGSTYYSPSLKSRTSISRDTSKNQFSLQLSSVTPEDTAVYYCARGTVGSWYDEFPPRYDYWGQGTQVTVSS
notes: The two are tied only by the clone number; also called anti-IL6 VH4 Nanobody 20.1; VH4 Nanobody 20.1; not shown: His6 tag from vector pAX51

Target: T1, human IL6 (human, UniProt P05231 30-212, biotinylated in the ELISA (bio-IL6); site not given)
T1 construct: In the ELISA it was biotinylated and captured on a neutravidin-coated plate; In Biacore it was on a CM5 sensor chip; also called bio-IL6; biotinylated human IL6
Assay: SPR, Biacore 3000, human IL6 on CM5 chip, Nanobody 3.75 nM to 2 uM
Experimental: Binding of VH4 Nanobodies to different antigens was evaluated by surface plasmon resonance on a Biacore 3000 instrument. […]

Row | Binder | Kd | koff | kon
1 | B1 | 19 nM | 0.00036 s⁻¹ | 19000 M⁻¹ s⁻¹
2 | B2 | 46 nM | 0.0018 s⁻¹ | 40000 M⁻¹ s⁻¹
